1 substance from patent publication US20260258111A1 can be followed below.

The target of this assay is WT. Nature of the assay: flow cytometry of CHO cells displaying the WT truncated domain, stained with labelled TRAIL; panel stands above the 2 ug/mL panel, its own TRAIL concentration is not labelled.
WT, sequence (chain, as listed by the source limits assumed, form in doubt): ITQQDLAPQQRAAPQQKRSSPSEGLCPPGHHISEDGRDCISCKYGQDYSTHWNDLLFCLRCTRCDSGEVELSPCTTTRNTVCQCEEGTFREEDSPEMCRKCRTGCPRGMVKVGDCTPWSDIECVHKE

With “APC-TRAIL (from UniProt P50591 114-281) (ligand)”, the APC-A, SSC-A subset (percent of cells in the gate) stood at 3.84%.
